Test results as given in patent US20050282743A1, “Molecular interactions in cells” (Arbor Vita Corporation, priority 2001, published 2005).

Experiments:
[1] = molecular target: GST-KIAA1634 PDZ domain 1 (Homo sapiens (Human)), Q5TCQ9; test: G' assay; further: key of the grades not given here
[2] = molecular target: T1, GST-KIAA1719 PDZ domain 2 (Homo sapiens (Human)), Q9C0E4; test: G' assay; further: key of the grades not given here
T1 chain: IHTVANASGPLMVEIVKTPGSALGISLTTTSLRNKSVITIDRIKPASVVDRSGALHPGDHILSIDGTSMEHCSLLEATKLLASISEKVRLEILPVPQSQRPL

[3] = molecular target: T2, GST-KIAA1719 PDZ domain 5 (Homo sapiens (Human)), Q9C0E4; test: G' assay; further: key of the grades not given here
T2 chain: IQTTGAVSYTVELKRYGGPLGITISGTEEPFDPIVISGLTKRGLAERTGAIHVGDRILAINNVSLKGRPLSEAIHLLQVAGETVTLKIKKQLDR

[4] = molecular target: T3, GST-MINT1 PDZ domains 1, 2, Q02410; test: G' assay; further: key of the grades not given here
T3 chain: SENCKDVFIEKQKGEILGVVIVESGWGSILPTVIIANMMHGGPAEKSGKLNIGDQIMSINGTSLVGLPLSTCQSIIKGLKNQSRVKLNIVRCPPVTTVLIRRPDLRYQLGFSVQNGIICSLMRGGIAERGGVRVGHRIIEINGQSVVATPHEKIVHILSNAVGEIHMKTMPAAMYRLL

[5] = molecular target: GST-TAX IP2 PDZ domain 1 [GST: P08515]; test: G' assay; further: key of the grades not given here
GST-TAX IP2 PDZ domain 1 [GST: P08515], sequence (P08515 whole entry, the tested form may be a part): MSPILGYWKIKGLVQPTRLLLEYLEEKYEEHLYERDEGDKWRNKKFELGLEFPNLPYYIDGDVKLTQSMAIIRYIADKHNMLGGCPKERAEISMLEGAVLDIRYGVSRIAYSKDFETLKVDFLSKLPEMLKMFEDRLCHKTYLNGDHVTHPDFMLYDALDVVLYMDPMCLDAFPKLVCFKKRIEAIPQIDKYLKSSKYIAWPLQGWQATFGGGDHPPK

[6] = molecular target: T4, GST-TIP1 PDZ domain 1 (Table 9 insert) (Homo sapiens (Human)), O14907; test: G' assay; further: key of the grades not given here
T4 chain: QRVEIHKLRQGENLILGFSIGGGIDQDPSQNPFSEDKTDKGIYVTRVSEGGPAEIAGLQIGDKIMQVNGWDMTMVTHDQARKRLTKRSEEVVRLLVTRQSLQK

[7] = molecular target: GST-BAI-1 Associated Protein PDZ domain 5 (Homo sapiens (Human)), Q96QZ7; test: G' assay; further: key of the grades not given here
GST-BAI-1 Associated Protein PDZ domain 5 (Homo sapiens (Human)), Q96QZ7, sequence (Q96QZ7 988-1099): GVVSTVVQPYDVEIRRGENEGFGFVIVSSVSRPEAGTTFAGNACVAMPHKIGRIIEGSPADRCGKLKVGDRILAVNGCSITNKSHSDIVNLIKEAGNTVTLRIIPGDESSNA

[8] = molecular target: T5, GST-DLG1 PDZ domain 2 (Homo sapiens), Q12959; test: G' assay; further: key of the grades not given here
T5 chain: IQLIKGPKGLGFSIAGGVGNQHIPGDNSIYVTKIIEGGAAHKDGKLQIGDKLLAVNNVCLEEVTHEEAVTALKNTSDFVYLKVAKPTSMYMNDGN

[9] = molecular target: T6, GST-ERBIN PDZ domain 1 (Homo sapiens (Human)), Q96RT1; test: G' assay; further: key of the grades not given here
T6 chain: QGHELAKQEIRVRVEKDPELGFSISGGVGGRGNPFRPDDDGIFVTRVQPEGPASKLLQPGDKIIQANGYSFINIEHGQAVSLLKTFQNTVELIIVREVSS

[10] = molecular target: T7, GST-INADL PDZ domain 8 (Homo sapiens (Human)), Q8NI35; test: G' assay; further: key of the grades not given here
T7 chain: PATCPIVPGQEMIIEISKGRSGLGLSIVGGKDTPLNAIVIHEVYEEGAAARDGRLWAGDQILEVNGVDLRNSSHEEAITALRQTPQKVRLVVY

[11] = molecular target: T8, GST-KIAA0380 PDZ domain 1 (Homo sapiens (Human)), O15085; test: G' assay; further: key of the grades not given here
T8 chain: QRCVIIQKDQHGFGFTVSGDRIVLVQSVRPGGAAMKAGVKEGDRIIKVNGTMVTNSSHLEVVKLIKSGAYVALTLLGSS

[12] = molecular target: T9, GST-KIAA0807(S) PDZ domain 1 (Homo sapiens (Human)), Q6P0Q8; test: G' assay; further: key of the grades not given here
T9 chain: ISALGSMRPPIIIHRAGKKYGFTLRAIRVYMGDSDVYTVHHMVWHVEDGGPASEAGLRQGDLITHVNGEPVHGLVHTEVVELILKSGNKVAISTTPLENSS

[13] = molecular target: T10, GST-KIAA0973 PDZ domain 1 (Homo sapiens (Human)), Q9Y2H9; test: G' assay; further: key of the grades not given here
T10 chain: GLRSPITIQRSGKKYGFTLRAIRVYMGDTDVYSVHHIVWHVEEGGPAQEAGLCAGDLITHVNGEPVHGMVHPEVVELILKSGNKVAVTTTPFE

[14] = molecular target: T11, GST-KIAA1526 PDZ domain 1 (Homo sapiens (Human)), Q9P202; test: G' assay; further: key of the grades not given here
T11 chain: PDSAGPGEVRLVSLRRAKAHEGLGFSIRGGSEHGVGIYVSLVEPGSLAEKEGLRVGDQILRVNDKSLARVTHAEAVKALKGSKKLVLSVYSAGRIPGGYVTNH

[15] = molecular target: GST-KIAA1634 PDZ domain 4 (Homo sapiens (Human)), Q5TCQ9; test: G' assay; further: key of the grades not given here
GST-KIAA1634 PDZ domain 4 (Homo sapiens (Human)), Q5TCQ9, sequence (Q5TCQ9 844-945): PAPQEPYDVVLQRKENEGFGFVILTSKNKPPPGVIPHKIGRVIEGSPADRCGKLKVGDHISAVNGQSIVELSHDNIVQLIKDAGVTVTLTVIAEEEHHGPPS

[16] = molecular target: GST-KIAA807 [GST: P08515]; test: G' assay; further: key of the grades not given here
GST-KIAA807 [GST: P08515], sequence (P08515 whole entry, the tested form may be a part): as the sequence (P08515 whole entry, the tested form may be a part) above

[17] = molecular target: T12, GST-MUPP1 PDZ domain 10 (Homo sapiens (Human)), O75970; test: G' assay; further: key of the grades not given here
T12 chain: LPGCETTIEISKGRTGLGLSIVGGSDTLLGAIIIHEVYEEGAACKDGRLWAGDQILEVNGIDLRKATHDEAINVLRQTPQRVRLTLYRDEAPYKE

[18] = molecular target: T13, GST-NeDLG PDZ domain 3 (Mus musculus (Mouse)), P70175; test: G' assay; further: key of the grades not given here
T13 chain: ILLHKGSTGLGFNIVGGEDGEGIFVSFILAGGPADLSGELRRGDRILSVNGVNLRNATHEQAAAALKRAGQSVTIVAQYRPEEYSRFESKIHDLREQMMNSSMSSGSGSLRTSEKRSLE

[19] = molecular target: T14, GST-Outer Membrane PDZ domain 1 (Homo sapiens (Human)), P57105; test: G' assay; further: key of the grades not given here
T14 chain: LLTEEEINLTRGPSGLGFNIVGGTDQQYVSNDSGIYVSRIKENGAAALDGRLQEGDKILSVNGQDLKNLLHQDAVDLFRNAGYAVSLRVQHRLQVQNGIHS

[20] = molecular target: T15, GST-Syntrophin 1 alpha PDZ domain 1 (Homo sapiens (Human)), Q13424; test: G' assay; further: key of the grades not given here
T15 chain: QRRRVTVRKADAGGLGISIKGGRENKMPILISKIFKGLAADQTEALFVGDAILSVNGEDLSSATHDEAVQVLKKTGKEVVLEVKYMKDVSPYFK

[21] = molecular target: T16, GST-ZO-3 PDZ domain 3 (Homo sapiens (Human)), O95049; test: G' assay; further: key of the grades not given here
T16 chain: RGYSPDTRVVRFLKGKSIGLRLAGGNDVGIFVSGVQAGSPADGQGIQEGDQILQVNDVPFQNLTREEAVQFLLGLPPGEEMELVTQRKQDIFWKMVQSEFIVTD

[22] = molecular target: T6, GST-ERBIN PDZ domain 1 (Homo sapiens …); test: G assay titration, PDZ 5 ug/ml
[23] = molecular target: GST-KIAA1634 PDZ domain 4 (Homo sapiens (Human)), Q5TCQ9; test: G assay titration, PDZ 5 ug/ml
[24] = molecular target: T9, GST-KIAA0807(S) PDZ domain 1 (Homo …); test: G assay titration, PDZ 0.1 ug/ml

GST-KIAA1634 PDZ domain 1 (Homo sapiens (Human)), Q5TCQ9, sequence (Q5TCQ9 401-502): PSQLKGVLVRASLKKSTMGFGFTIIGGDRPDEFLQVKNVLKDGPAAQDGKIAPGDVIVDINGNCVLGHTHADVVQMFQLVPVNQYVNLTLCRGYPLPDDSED

B1: CKR5 (HIV Co-receptor) (peptide)
peptide: ERASSVYTRSTGEQEISVGL
modifications: not checked
A Classification [1] of 1 A450 class, a Classification [2] of 1 A450 class and a Classification [3] of 1 A450 class were found for B1 in this work. For the same binder, the Classification [4] was 1 A450 class, the Classification [5] was 1 A450 class and the Classification [6] was 1 A450 class.

B2: CITRON protein (peptide)
peptide: AGAVRTPLSQVNKVWDQSSV
modifications: not checked
A Classification [7] of 2 A450 class, a Classification [8] of 2 A450 class and a Classification [9] of 4 A450 class were found for B2 in this work. It also gave a Classification [10] of 1 A450 class, a Classification [11] of 1 A450 class and a Classification [12] of 4 A450 class. The Classification [13] was 5 A450 class, the Classification [14] was 1 A450 class and the Classification [15] was 3 A450 class. For the same binder, the Classification [16] was 4 A450 class, the Classification [17] was 1 A450 class and the Classification [18] was 3 A450 class. For the same binder, the Classification [19] was 4 A450 class, the Classification [20] was 1 A450 class and the Classification [6] was 5 A450 class. It also gave a Classification [21] of 1 A450 class, a Kd [22] of 7 µM and a Kd [23] of 8 µM. It also gave a Kd [24] of 1 µM.
